From article PMC10176472

Columns and labels:
[1] = biological target: CDK4 from MCF-7 cell lysate (human (endogenous in MCF-7)) (UniProt P11802)
[2] = biological target: CDK4 from MCF-7 cell lysate (human (endogenous in MCF-7)) (UniProt P11802); remark: listed apart in the source
GST-CDK4 = GST-CDK4 (UniProt P11802); assay: MST; microscale thermophoresis of MBP-P16p and MBP-cycP16p with GST-CDK4; three replicate measurements

Row | Substance | G0/G1 cell cycle arrest of MCF-7 cells, time course up to 72 h in serum-supplemented medium [1] | G0/G1 cell cycle arrest of MCF-7 cells treated for 24 h with different concentrations, flow cytometry; value at 15 μM [2] | Kd (GST-CDK4)
1 | bicyclic cycRGD-mCh-cycP16p (from UniProt P42771 83-103) | 88% | 76.7% | –
2 | MBP-P16p (linear counterpart of MBP-cycP16p) (from UniProt P42771 83-103) (peptide) | – | – | 117 nM
3 | cyclized MBP-P16p protein (MBP-cycP16p) (from UniProt P42771 83-103) (peptide) | – | – | 27.7 nM
